B1: C-terminally biotinylated FHR (residues 25-249, AviTag) (receptor)
chain: NDNLEAELEQTKALCEVAKQLRKLPLLTEERRFEAVGALEESKKAAKEGKKAAKRAEAGAVGGTSEQQQAAKRAREAATVAYEASVRAEAAAMEVKRFARALDSFESEYESVFSGLLRGAAEHGGNETIKQLAKECATAVADDVTPEALTRAAHNLRGLYMQDFAEEYLQEANEAANKLEELQKATAETVRAADAADDAKSEAQEEAAQFPEIDDDDSDEDKEDE
modifications: biotin on the C-terminal AviTag
notes: T. brucei FHR, Tb927.5.4020, residues 25-249, synthetic gene optimized for E. coli in pET15b; TEV site after the His tag; GSGSGSS linker between FHR and the AviTag; also called FHR WT; WT FHR; source: E. coli BL21(DE3), purified (Ni-NTA), biotinylated with BirA; not shown: His6, N-terminal, cleaved; AviTag, C-terminal, kept

Columns and labels:
Settings in all cases: both partners purified
[1] = target: T1, bovine complement factor H from serum (bovine (endogenous in bovine serum), UniProt Q28085 19-1236); test: SPR; biotinylated FHR or mutant on a streptavidin chip (Biacore T-100/T-200), FH proteins flowed over in twofold dilutions; 20 °C, 10 mM HEPES, 150 mM NaCl, 0.005% Tween-20 pH 7.5; kinetic fit: two-state model (bovine FH) or 1:1 model (bovine domains 4-5-6 and 5)
T1 construct: complement factor H, bovine, native serum protein of 145 kDa; also called FH; bovine FH; source: endogenous, bovine serum (Sigma-Aldrich); purified from adult bovine serum (FHR-agarose, eluted with glycine-HCl pH 2.5)
T1 sequence: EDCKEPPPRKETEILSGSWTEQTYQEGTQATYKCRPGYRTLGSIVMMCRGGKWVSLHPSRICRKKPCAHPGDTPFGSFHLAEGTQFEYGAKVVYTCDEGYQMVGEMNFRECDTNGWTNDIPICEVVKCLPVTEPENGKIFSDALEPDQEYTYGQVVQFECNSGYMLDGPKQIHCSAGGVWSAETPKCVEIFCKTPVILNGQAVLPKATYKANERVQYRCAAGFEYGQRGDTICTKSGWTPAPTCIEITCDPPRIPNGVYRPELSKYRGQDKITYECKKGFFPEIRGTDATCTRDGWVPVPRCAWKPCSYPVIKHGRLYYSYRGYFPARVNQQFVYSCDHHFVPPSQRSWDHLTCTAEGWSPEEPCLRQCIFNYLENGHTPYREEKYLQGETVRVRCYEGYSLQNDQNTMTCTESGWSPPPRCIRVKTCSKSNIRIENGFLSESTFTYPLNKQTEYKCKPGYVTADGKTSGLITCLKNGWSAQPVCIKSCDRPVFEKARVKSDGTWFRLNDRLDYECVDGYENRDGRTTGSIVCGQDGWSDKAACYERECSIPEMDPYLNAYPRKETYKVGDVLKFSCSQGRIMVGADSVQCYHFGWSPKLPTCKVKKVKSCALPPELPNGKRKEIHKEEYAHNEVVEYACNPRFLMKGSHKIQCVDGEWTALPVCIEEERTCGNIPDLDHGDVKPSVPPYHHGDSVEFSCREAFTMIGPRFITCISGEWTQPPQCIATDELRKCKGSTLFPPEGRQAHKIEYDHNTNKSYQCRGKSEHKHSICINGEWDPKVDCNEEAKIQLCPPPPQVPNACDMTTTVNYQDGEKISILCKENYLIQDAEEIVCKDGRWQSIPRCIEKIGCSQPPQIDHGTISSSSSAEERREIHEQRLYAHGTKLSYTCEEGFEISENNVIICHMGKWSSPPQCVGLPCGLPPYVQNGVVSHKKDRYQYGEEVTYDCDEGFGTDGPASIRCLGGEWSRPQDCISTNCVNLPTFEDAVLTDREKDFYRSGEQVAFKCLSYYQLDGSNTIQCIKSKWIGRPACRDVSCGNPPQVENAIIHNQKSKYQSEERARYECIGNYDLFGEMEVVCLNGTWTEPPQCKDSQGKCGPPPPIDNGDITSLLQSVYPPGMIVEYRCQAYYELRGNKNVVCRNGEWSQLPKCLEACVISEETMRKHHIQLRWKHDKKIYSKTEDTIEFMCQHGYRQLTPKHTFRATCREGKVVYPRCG

[2] = target: T2, recombinant bovine FH, complete (residues 18-1236) (bovine, UniProt Q28085 18-1236); test: as above
T2 construct: complement factor H, bovine, complete (residues 18-1236); pDest12; CD33 signal peptide, then 10xHis, AviTag, GSGSGS linker and a TEV site before the ORF; also called full-length bovine FH; recombinant FH; source: G22 CHO cells, secreted, purified (Ni-NTA)
T2 sequence (looked up): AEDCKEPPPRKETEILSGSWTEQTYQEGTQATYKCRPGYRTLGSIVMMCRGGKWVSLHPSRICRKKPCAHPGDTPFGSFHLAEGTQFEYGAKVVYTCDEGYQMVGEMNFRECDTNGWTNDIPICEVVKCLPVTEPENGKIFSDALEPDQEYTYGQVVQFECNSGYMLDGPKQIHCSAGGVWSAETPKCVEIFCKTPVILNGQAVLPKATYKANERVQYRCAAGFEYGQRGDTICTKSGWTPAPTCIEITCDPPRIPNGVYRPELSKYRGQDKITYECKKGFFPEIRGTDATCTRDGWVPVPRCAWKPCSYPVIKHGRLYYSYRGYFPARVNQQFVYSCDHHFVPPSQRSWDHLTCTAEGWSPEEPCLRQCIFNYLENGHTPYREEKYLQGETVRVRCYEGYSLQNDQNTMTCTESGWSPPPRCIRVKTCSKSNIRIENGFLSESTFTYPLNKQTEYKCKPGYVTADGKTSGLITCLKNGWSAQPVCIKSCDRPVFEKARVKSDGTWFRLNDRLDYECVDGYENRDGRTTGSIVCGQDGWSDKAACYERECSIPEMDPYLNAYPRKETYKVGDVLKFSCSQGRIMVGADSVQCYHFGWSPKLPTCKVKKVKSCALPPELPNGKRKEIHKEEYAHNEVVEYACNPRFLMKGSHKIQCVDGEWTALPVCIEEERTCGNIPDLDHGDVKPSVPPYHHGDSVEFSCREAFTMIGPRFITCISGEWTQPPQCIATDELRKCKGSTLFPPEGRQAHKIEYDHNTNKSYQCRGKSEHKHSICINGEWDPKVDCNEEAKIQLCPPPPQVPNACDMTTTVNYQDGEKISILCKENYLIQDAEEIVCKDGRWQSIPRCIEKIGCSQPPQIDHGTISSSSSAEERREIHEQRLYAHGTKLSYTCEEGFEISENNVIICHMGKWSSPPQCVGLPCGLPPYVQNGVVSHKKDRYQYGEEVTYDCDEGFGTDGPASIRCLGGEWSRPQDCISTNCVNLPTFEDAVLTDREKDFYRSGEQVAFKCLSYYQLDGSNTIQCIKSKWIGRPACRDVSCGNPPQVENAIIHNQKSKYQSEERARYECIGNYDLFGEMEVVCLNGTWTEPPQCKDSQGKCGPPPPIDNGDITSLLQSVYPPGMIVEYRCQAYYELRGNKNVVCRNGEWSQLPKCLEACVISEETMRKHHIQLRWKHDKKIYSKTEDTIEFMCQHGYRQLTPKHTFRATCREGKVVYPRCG

[3] = target: B1; test: SPR; biotinylated FHR or mutant 2 on a streptavidin chip, mouse or human FH domains 4-5-6 flowed over; 20 °C, 10 mM HEPES, 150 mM NaCl, 0.005% Tween-20 pH 7.5; steady-state analysis
[4] = target: B1; test: SPR; biotinylated FHR or mutant on a streptavidin chip (Biacore T-100/T-200), FH proteins flowed over in twofold dilutions; 20 °C, 10 mM HEPES, 150 mM NaCl, 0.005% Tween-20 pH 7.5; kinetic fit: two-state model (bovine FH) or 1:1 model (bovine domains 4-5-6 and 5)

B1
Kd [1]: 153 nM | Kd [2]: 114 nM

B2: mouse FH domains 4-5-6 (residues 207-387) (domain or fragment, UniProt P06909 207-387, looked up)
chain: EILCTPPRVENGDGINVKPVYKENERYHYKCKHGYVPKERGDAVCTGSGWSSQPFCEEKRCSPPYILNGIYTPHRIIHRSDDEIRYECNYGFYPVTGSTVSKCTPTGWIPVPRCTLKPCEFPQFKYGRLYYEESLRPNFPVSIGNKYSYKCDNGFSPPSGYSWDYLRCTAQGWEPEVPCVR
notes: complement factor H, mouse, domains 4-5-6 (residues 207-387); pDest12; CD33 signal peptide, ORF, C-terminal GSGSGS linker, AviTag and 10xHis; also called mouse domains 4-5-6; source: G22 CHO cells, secreted, purified (Ni-NTA)
Kd [3]: 12000 nM

B3: human FH domains 4-5-6 (residues 207-387) (domain or fragment)
chain: not shown
notes: complement factor H, human, domains 4-5-6 (residues 207-387); pDest12; CD33 signal peptide, ORF, C-terminal GSGSGS linker, AviTag and 10xHis; also called human domains 4-5-6; source: G22 CHO cells, secreted, purified (Ni-NTA)
Kd [3]: 8700 nM

B4: bovine FH domains 4-5-6 (residues 207-385) (domain or fragment, UniProt Q28085 207-385, looked up)
chain: EIFCKTPVILNGQAVLPKATYKANERVQYRCAAGFEYGQRGDTICTKSGWTPAPTCIEITCDPPRIPNGVYRPELSKYRGQDKITYECKKGFFPEIRGTDATCTRDGWVPVPRCAWKPCSYPVIKHGRLYYSYRGYFPARVNQQFVYSCDHHFVPPSQRSWDHLTCTAEGWSPEEPCLR
notes: complement factor H, bovine, domains 4-5-6 (residues 207-385); pDest12; CD33 signal peptide, ORF, C-terminal GSGSGS linker, AviTag and 10xHis; source: G22 CHO cells, secreted, purified (Ni-NTA)
Kd [4]: 167 nM

B5: bovine FH domain 5 (residues 264-323), as used in SPR (domain or fragment, UniProt Q28085 264-323, looked up)
chain: EITCDPPRIPNGVYRPELSKYRGQDKITYECKKGFFPEIRGTDATCTRDGWVPVPRCAWK
notes: complement factor H, bovine, domain 5 (residues 264-323); N-terminal tags, a TEV site and an extra serine-glycine linker before domain 5; also called domain 5 alone; source: G22 CHO cells, secreted, purified (Ni-NTA)
Kd [4]: 562 nM

From PMC7067766, “A receptor for the complement regulator factor H increases transmission of trypanosomes to tsetse flies” (Nature Communications, 2020)
